Test [1] deals with ComR S. suis 05ZYH33 (residues 1–304), wild-type (Streptococcus suis 05ZYH33).
For test [2] the target is unchanged. The test can be described thus: ITC; 300 μM XIP injected into 20 μM ComR; VP-ITC, 25°C; 20 mM Tris pH 7.5, 100 mM NaCl, 1 mM β-ME; one-site model. For orientation: Isothermal titration calorimetry measures the heat released or taken up as one component is titrated into another.
Test [3] has as its target ComR S. suis N220A (Streptococcus suis 05ZYH33). The test is described as above.
Test [4] concerns S. agalactiae 2603 v/r ComR. The test is described as follows: S. mutans ES1 test-bed PcomS::luxAB luciferase reporter assay. It is filed as cell-based. The settings on record: synthetic peptides titrated to ES1 reporter strain carrying ComR S. agalactiae 2603. The source says:
(§1) The entire known SigX regulon, as well as the proximal transcriptional regulator of sigX, ComR, is conserved throughout the Mutans, Bovis, and Pyogenic groups (Fig 1, top). Additionally, within these groups, the mature form of the peptide pheromone ComS contains a conserved double-tryptophan motif (‘WW’) (Fig 1, bottom). This led us to ask whether the putative ComRs encoded by members of these groups could respond to cognate and heterologous XIPs to activate comS and sigX transcription. To test this possibility, we developed a strain that would allow for control of the ComR and XIP variants present within the system. […] Additionally, when a multi-copy plasmid carrying wild-type comR was provided to a ΔcomR strain, the ability to naturally transform exogenous genomic DNA was rescued. With these observations in mind, we created an S. mutans UA159 ‘test bed’ strain, ES1, in which the endogenous comRS locus was replaced with a spectinomycin-resistance cassette (Fig 2A). Because this strain contains neither comS nor comR, it is unable to produce or respond to XIP pheromones. A plasmid was used as a vehicle to provide different comR variants, under control of the native promoter, with adjoining comR-comS intergenic regions containing ComR binding sites and the comS promoter. The plasmid also contains the bacterial luciferase genes, luxAB, under transcriptional control of the cloned comS promoter. Clones harboring each comR-variant plasmid were constructed, grown, and treated with titrations of synthetic XIP peptides. Since productive interaction between ComR and XIP results in transcriptional activation of the comS promoter, we could test the functionality of ComR–XIP interactions by assessing the specific bioluminescent activity of each culture. To ensure that the test bed recapitulated observed results seen in wild-type S. mutans UA159, we assessed the UA159 ComR with serial dilutions of the cognate XIP-C7 (the C-terminal seven amino acids of ComS) and measured bioluminescence levels (Fig 2B).
(§2) Predicted XIP peptide sequences were determined by identifying open reading frames downstream from the putative ComR gene by using NCBI BLAST to identify UA159 ComR homologues. One to three different lengths of peptide from each species were ordered from NeoScientific (Woburn, MA). Peptide crude extracts (purity 45–75%) were dissolved in DMSO (Fisher Scientific, Hampton, NH) at a concentration of 1 mM based upon the specific purity and stored at -20° C.
(§3) Starter cultures, from cultures stored in 20% glycerol at -80° C, of each ComR reporter strain were diluted to an OD600 of 0.05 in CDM + erm and incubated at 37° C until an OD^600 of ~0.1. 190 uL aliquots of reporter strain cell culture were added to wells within a 96-well (Greiner Bio-One; Monroe, NC) lidded, clear, flat-bottom plate, each containing 10 μL of DMSO or a 5x-serial dilution of the peptide of interest in DMSO (final concentration of 5% DMSO/well). Concentrations tested for each peptide were 1.3 nM, 6.4 nM, 38.6 nM, 231.5 nM, 1388.9 nM, […], and 50 μM. […] Prepared plates were lidded and sealed with Parafilm (Bemis, Oshkosh, WI) before incubation at 37° C, with continuous shaking, in a Synergy 2 plate reader (Biotek). OD600 and luminescence readings were measured every 15 min. over a 4-hr period. The maximum RLU measurement per well, between 60–240 minutes was recorded using Gen5 data analysis software. […]
A general note: A reporter such as luciferase makes a cellular process visible.

The target of test [5] is ComR S. pyogenes MGAS5005 (Streptococcus pyogenes MGAS5005).
Test [6] deals with ComR S. dysgalactiae subsp. equisimilis ATCC35666 (Streptococcus dysgalactiae subsp. equisimilis ATCC35666).
Another test concerns S. suis S10 (serotype 2). The note with it: cited from earlier work. The source says:
One observed difference from published ComR/XIP behavior was for the two S. pyogenes strains used in our study, MGAS5005 (serotype M1) and MGAS315 (serotype M3).

For test [7], the target named is ComR S. bovis SboB (Streptococcus bovis SboB).
In the next test the target is S. mutans UA159 ComR (Streptococcus mutans serotype c, UniProt Q8DWI6). The test can be described thus: S. mutans ES1 test-bed PcomS::luxAB luciferase reporter assay. The format is cell-based.
Description: as §1, §2, §3

The target of test [8] is ComR S. bovis 83 (Streptococcus bovis Sbo 83).
Test [9] deals with ComR S. mutans UA159 (Streptococcus mutans UA159).
For test [10] the target is unchanged. The source holds these as a separate data set.

Read-outs that look alike come from different tables or passages of the source. Ends that are not written are not given here.

In test [1], S. suis 05ZYH33 XIP-C7 (peptide) returned an EC50 of P comS::luxAB luciferase activity in the S. mutans ES1 test bed of 0.093 µM. In test [2], the Kd (usually the equilibrium constant for the complex coming apart) is 0.862 µM; the dH was -56.7 kJ/mol; the stoichiometry N – broadly, a count of units in the complex or per binding partner – was found to be 0.96. In test [3], this molecule showed a Kd of 13.7 µM, a dH of -30.5 kJ/mol and a stoichiometry N of 1.09.

For “ETEWWNVG [EBS3, designed XIP of eight residues for ComR S. agalactiae 2603, ETEWWNVG]”, the “reporter induction of ComR S. agalactiae 2603 (maximum relative luciferase activity), in words” value in [4] is “did not elicit strong reporter activity”.

Regarding “LDWWSLG [EBS1, designed XIP agonist of ComR S. agalactiae 2603, LDWWSLG]”, in test [4], the “reporter induction of ComR S. agalactiae 2603 (maximum relative luciferase activity), in words” value is “robust reporter induction”.

S. pyogenes MGAS315 XIP-C8 (peptide) showed a P comS::luxAB transcription at 50 μM XIP, relative to the maximum with the cognate XIP in test [5] of 25%.

In [6], “S. dysgalactiae subsp. equisimilis ATCC35666 XIP-C7 (peptide)” came in with an EC50 of P comS::luxAB luciferase activity in the S. mutans ES1 test bed of 15 µM and an increase in reporter activity at 50 μM XIP of 10 fold.

On to GNWGTWVEE [XIP-C9], for which the “transformability upon addition of XIP length variant” value in the test with S. suis S10 (serotype 2) is “highest transformability”.

Molecule S. bovis SboB XIP-C7 (peptide) showed an EC50 of P comS::luxAB luciferase activity in the S. mutans ES1 test bed in [7] below 0.001 µM.

“TMGWWGL [NEM316 XIP, putative Type-II XIP of S. agalactiae strain NEM316, TMGWWGL]”: the “reporter induction of ComR S. agalactiae 2603 (maximum relative luciferase activity), in words” value in [4] was “unable to activate”.

As to S. pyogenes MGAS5005 XIP-C8 (peptide), in test [5], the EC50 of P comS::luxAB transcription in the S. mutans ES1 test bed amounted to 0.25 µM and the increase of P comS::luxAB transcription at 50 μM XIP amounted to 25 fold.

On to GLDWWSL [UA159 C7], for which the EC50 (usually the concentration at which the effect is half-maximal) on S. mutans UA159 ComR worked out at 0.00017 µM.

On to “TGWWMLG [EBS2, designed XIP agonist of ComR S. agalactiae 2603, TGWWMLG]”, for which the “reporter induction of ComR S. agalactiae 2603 (maximum relative luciferase activity), in words” value in test [4] is “robust reporter induction”.

Turning to S. bovis 83 XIP-C7 (peptide), the EC50 of P comS::luxAB luciferase activity in the S. mutans ES1 test bed in test [8] is below 0.001 µM.

B1: S. mutans UA159 XIP-C7 (peptide)
peptide: GLDWWSL
As to B1, in test [9], the EC50 of P comS::luxAB luciferase activity in the S. mutans ES1 test bed was 0.0002 µM and the maximal induction of luciferase activity in the test bed, at 2 nM XIP turned out to be 140 fold. In test [2], this molecule came in with a Kd of 5.88 µM, a dH of -25.2 kJ/mol and a stoichiometry N of 1.03. In test [3], the Kd is 6.06 µM, the dH was -17.8 kJ/mol and the stoichiometry N is 0.95. In test [10], this molecule displayed an EC50 of P comS::luxAB luciferase activity in the S. mutans ES1 test bed of 0.088 µM.

These data come from article PMC5131902, “Pheromone Recognition and Selectivity by ComR Proteins among Streptococcus Species” (PLoS Pathogens, 2016).
